In patent US20210214414A1 (Pfizer, published 2021):

Assays:
Human SLIT1-N = molecular target: T1, Human SLIT1-N (human, UniProt O75093 34-1127, limits assumed); test: HTRF competition: d2-labelled human SLIT1-N binding to human ROBO2 on HEK293 cells; geometric mean, n=3
T1 construct: domain: SLIT1-N; d2-labelled in the HTRF assay
T1 sequence (looked up): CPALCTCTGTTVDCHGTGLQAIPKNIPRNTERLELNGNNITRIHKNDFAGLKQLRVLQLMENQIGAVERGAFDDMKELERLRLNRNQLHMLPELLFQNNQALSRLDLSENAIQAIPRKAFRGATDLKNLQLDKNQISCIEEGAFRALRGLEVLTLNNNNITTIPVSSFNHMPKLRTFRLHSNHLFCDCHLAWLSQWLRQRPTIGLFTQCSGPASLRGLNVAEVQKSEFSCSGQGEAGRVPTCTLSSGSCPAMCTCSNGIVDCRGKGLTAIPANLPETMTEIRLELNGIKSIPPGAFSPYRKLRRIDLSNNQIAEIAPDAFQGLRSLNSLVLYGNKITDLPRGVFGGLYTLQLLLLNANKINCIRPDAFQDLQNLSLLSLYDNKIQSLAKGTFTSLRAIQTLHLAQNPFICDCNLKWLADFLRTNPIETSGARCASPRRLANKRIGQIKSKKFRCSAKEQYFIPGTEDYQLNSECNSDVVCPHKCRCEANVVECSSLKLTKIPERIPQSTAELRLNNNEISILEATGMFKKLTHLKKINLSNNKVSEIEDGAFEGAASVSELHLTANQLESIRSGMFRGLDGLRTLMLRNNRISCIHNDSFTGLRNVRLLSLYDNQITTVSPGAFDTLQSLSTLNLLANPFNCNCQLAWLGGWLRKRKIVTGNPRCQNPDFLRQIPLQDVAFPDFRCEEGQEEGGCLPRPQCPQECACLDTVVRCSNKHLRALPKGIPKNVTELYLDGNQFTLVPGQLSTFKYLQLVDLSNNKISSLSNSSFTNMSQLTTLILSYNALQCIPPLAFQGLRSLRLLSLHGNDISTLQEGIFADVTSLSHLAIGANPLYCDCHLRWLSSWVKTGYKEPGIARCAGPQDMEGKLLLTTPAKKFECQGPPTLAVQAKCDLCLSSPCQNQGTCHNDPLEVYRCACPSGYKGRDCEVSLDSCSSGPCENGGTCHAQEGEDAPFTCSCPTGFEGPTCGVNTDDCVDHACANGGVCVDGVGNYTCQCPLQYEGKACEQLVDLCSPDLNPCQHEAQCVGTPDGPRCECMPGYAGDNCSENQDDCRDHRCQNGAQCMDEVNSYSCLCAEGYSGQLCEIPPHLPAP
Experimental: (§1) After incubation, fluorescence at 665 nm and 620 nm was measured on an Envision multilabel plate reader. The HTRF Ratio was calculated as follows: fluorescence at 665 nm/fluorescence at 620 nm×10,000. […] The IC₅₀ for each SLITx-N was determined using an 11-point, 4-fold dilution series with a top concentration of 4000 nM.

Rabbit SLIT2-N = molecular target: T2, Rabbit SLIT2-N (rabbit, UniProt G1TMD3 31-1121); test: HTRF competition: d2-labelled rabbit SLIT2-N binding to human ROBO2 on HEK293 cells; geometric mean, n=3
T2 construct: domain: SLIT2-N; d2-labelled in the HTRF assay
T2 sequence: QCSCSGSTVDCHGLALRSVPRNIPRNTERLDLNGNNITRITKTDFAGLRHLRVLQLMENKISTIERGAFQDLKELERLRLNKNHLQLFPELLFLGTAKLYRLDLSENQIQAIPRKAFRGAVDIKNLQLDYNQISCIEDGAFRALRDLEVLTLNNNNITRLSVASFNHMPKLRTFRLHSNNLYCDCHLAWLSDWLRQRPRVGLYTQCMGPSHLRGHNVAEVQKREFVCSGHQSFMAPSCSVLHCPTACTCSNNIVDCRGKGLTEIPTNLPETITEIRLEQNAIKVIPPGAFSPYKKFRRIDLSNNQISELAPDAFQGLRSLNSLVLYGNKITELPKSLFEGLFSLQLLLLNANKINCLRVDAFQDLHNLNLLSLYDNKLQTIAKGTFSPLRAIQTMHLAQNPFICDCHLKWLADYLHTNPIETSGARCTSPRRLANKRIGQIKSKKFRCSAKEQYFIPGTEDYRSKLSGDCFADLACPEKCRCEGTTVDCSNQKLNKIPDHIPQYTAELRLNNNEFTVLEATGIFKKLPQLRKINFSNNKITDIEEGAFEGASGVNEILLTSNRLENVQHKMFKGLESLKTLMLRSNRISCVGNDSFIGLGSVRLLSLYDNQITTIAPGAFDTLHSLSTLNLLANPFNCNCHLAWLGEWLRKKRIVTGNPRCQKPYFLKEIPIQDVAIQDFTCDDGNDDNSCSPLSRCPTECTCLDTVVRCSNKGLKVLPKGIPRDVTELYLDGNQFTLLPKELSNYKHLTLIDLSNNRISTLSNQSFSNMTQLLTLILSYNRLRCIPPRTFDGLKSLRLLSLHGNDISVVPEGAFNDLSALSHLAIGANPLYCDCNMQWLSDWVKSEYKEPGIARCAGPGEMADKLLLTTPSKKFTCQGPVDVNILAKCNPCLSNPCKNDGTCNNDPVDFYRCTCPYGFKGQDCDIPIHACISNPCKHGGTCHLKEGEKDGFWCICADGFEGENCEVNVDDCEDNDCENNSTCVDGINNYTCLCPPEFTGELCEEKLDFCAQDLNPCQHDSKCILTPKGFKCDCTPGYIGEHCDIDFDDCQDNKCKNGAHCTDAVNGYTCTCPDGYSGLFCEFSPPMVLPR
Experimental: as §1

B1: ROBO2-Fc 2.2 (Fc fusion)
chain: SRLRQEDFPPRIVEHPSDVIVSKGEPTTLNCKAEGRPTPTIEWYKDGERVETDKDDPRSHRMLLPSGSLFFLRIVHGRRSKPDEGSYVCVARNYLGEAVSRNASLEVALLRDDFRQNPTDVVVAAGEPAILECQPPRGHPEPTIYWKKDKVRIDDKEERISIRGGKLMISNTRKSDAGMYTCVGTNMVGERDSDPAELTVFERGGSGGSEPKSSDKTHTCPPCPAPEAAGAPSVFLFPPKPKDTLMISRTPEVTCVVVDVSHEDPEVKFNWYVDGVEVHNAKTKPREEQYNSTYRVVSVLTVLHQDWLNGKEYKCKVSNKALPAPIEKTISKAKGQPREPQVYTLPPSREEMTKNQVSLTCLVKGFYPSDIAVEWESNGQPENNYKTTPPVLDSDGSFFLYSKLTVDKSRWQQGNVFSCSVMHEALHNHYTQKSLSLSPG
notes: Labelled with Alexa Fluor 647 in the flow cytometry assay; also called ROBO-Fc 2.2; ROBO2-Fc 2.2-AF647
B1 gave an IC50 (Human SLIT1-N) of 5.9 nM and an IC50 (Rabbit SLIT2-N) of 5.7 nM.
